Legend:
Type in all cases: cell-based
[1] = test system: differentiated mouse adipocyte cell line 3T3-L1; assay: Enhancing action by anti-GM2A antibody and ligand on glucose uptake (2-deoxyglucose incorporation)
Method: (§1) Mouse adipocyte cell line 3T3-L1 was purchased from Health Science Research Resources Bank. Cells of the purchased mouse adipocyte cell line […] were cultured in a D-MEM containing 10% fetal bovine serum (hereinafter referred to as D-MEM (10)) at 37° C. under an atmosphere of 5% CO2. The cultured cells were plated on a 6-well plate. Two days after becoming confluent, the culture solution was exchanged for a pre-differentiation culture solution (D-MEM (10) containing 1 μg/ml insulin, 0.5 mM 3-isobutyl-1-methylxanthine, and 1 μM dexamethasone), and the culture was further cultured for another 4 days. […] Here, the protein concentration of the specimen was measured using BCA Protein Assay Reagent (catalogue No. 23228, Pierce) using bovine serum albumin as a standard protein.
The amount of 2-deoxyglucose in the specimen was quantitatively determined according to the following method. To a plate for fluorescence measurement, were added 100 μl of an assay buffer (50 mM triethanolamine (pH 8.1), 50 mM KCl, 0.5 mM MgCl2, 0.02% bovine serum albumin, 670 μM ATP, 0.12 μM NADP^+, 25 μM resazurin, 5.5 units/ml hexokinase, 16 units/ml G6PDH, 1 units/ml diaphorase) and 100 μl of the specimen. After keeping the obtained mixture at 37° C. for 90 minutes, the fluorescence intensity of the obtained mixture was measured (excitation wavelength: 530 nm, detection wavelength: 595 nm). […]

[2] = test system: differentiated mouse skeletal muscle cell line C2C12; assay: Inhibition by GM2A protein of insulin intracellular signaling (Akt phosphorylation, Western blot); conditions: for Phosphorylated Akt/Akt: Insulin + (1 μg/ml, 10 minutes), 24 hours, no insulin = 1.0, insulin alone = 2.1
Method: (§2) Mouse skeletal muscle cell line C2C12 (CRL-1772) and rat pheochromocytoma cell line PC12 (CRl-1721) were purchased from ATCC. Cells of the both cell lines were cultured in a D-MEM medium containing 10% inactivated fetal bovine serum (catalogue No. 14247-15, NACALAI TESQUE, INC.) at 37° C. under an atmosphere of 5% CO2. Cells of differentiated mouse skeletal muscle cell line C2C12 were prepared by exchanging the medium for a D-MEM containing 2% inactivated equine serum and culturing the mixture for […].
(§3) Human GM2A protein was prepared as follows. First, a cDNA was prepared from human lung cancer cell line HARA-B (catalogue No. JCRB1080.1, Health Science Research Resources Bank), using oligo(dT). Using the prepared cDNA, a PCR fragment containing the full length of human GM2A gene was obtained. The obtained PCR fragment was inserted into pET24a vector (catalogue No. 69749-3, Novagen), whereby human GM2A/pET24a plasmid was prepared. Next, after human GM2A/pET24a was added to Escherichia coli BL21 (DE3) pLysS (catalogue No. 69451-4, Novagen) to transform the Escherichia coli, the obtained Escherichia coli was cultured on shaking in an LB medium containing 50 μg/ml kanamycin at 37° C. until OD600=about 0.5. Then, after Isopropyl-β-thiogalactopyranoside (catalogue No. 9030, Takara Bio Inc.) was added to the obtained culture so that the final concentration could be 0.5 mM, the culture was further cultured on shaking at 18° C. for 3 hours. Bacterial cells were collected by centrifuging the obtained culture, and the collected bacterial cells were sonicated. Then, the obtained homogenate was centrifuged at 11,000 rpm for 30 minutes. After Ni-NTA agarose (catalogue No. 1018244, Qiagen) was added to the obtained supernatant and left at 4° C. for 2 hours, the obtained left object was washed 5 times. From the obtained washed object, an elution fraction of a protein was obtained by elution of a protein with 250 mM imidazole. The obtained elution fraction was purified by anion exchange chromatography HiTrapQ HP, whereby human GM2A protein was prepared. […]

[3] = test system: undifferentiated mouse skeletal muscle cell line C2C12; assay: Inhibition by GM2A protein of leptin intracellular signaling (AMPK alpha phosphorylation, Western blot); conditions: for Phosphorylated AMPK alpha/AMPK alpha: Leptin + (0.1 μg/ml, 30 minutes), 24 hours, no leptin = 1.0, leptin alone = 1.9
Method: as §2, §3

[4] = test system: rat pheochromocytoma cell line PC12; assay: Inhibition by GM2A protein of NGF intracellular signaling (Akt phosphorylation, Western blot); conditions: for Phosphorylated Akt/Akt: NGF + (0.1 μg/ml, 10 minutes), 24 hours, no NGF = 1.0, NGF alone = 1.8
Method: as §2, §3

[5] = test system: mouse adipocyte cell line 3T3-L1; assay: Inhibitory action by GM2A protein on glucose uptake (2-deoxyglucose incorporation); conditions: for Amount of 2-Deoxyglucose: relative value per amount of protein, Insulin +, no insulin = 100, insulin alone = 215
Method: as §1, with “days. Next, after the pre-differentiation culture solution was exchanged for a post-differentiation culture solution (D-MEM (10) containing 1 insulin) and the culture was cultured for 3 days, the culture solution was exchanged for a D-MEM (10) containing mouse GM2A protein, and the culture was further cultured for another day.” for “days.”
The amount of 2-deoxyglucose in the specimen was quantitatively determined according to the following method. To a plate for fluorescence measurement, were added 100 μl of an assay buffer (50 mM triethanolamine (pH 8.1), 50 mM KCl, 0.5 mM MgCl2, 0.02% bovine serum albumin, 670 μM ATP, 0.12 μM NADP^+, 25 μM resazurin, 5.5 units/ml hexokinase, 16 units/ml G6PDH, 1 units/ml diaphorase) and 100 μl of the specimen. After keeping the obtained mixture at 37° C. for 90 minutes, the fluorescence intensity of the obtained mixture was measured (excitation wavelength: 530 nm, detection wavelength: 595 nm). A calibration curve was created using 2-deoxyglucose of 500 μM, 250 μM, 125 μM and 0 μM (purified water) as a standard, and quantitative determination was carried out on the basis of the calibration curve. The amount of 2-deoxyglucose incorporated into a cell per the amount of protein of the specimen was calculated as a relative value.

[6] = concentration-dependent, 2 and 4 μg/ml

ganglioside GM2
intracellular incorporation of 2-deoxyglucose [1]: enhanced | Amount of 2-Deoxyglucose ([1]; relative value, 1 μM, 1 day, DMSO = 100): 120

B1: GM2AP: Human GM2A protein expressed in Escherichia coli from human GM2A/pET24a, purified by Ni-NTA agarose and anion exchange chromatography (protein)
chain: HLKKPSQLSSFSWDNCDEGKDPAVIRSLTLEPDPIIVPGNVTLSVMGSTSVPLSSPLKVDLVLEKEVAGLWIKIPCTDYIGSCTFEHFCDVLDMLIPTGEPCPEPLRTYGLPCHCPFKEGTYSLPKSEFVVPDLELPSWLTTGNYRIESVLSSSGKRLGCIKIAASLKGI
Phosphorylated Akt/Akt ([2]; GM2AP 2 μg/ml): 1.8 | Phosphorylated Akt/Akt ([2]; GM2AP 4 μg/ml): 1.2 | Phosphorylated AMPK alpha/AMPK alpha ([3]; GM2AP 2 μg/ml): 1.0 | Phosphorylated AMPK alpha/AMPK alpha ([3]; GM2AP 4 μg/ml): 0.9 | Phosphorylated Akt/Akt ([4]; GM2AP 2 μg/ml): 1.5 | Phosphorylated Akt/Akt ([4]; GM2AP 4 μg/ml): 1.4

B2: GM2A Protein: mouse GM2A protein added to the culture solution of 3T3-L1 cells in Example 8 (protein)
chain: ARLVPKRLSQLGGFSWDNCDEGKDPAVIKSLTIQPDPIVVPGDVVVSLEGKTSVPLTAPQKVELTVEKEVAGFWVKIPCVEQLGSCSYENICDLIDEYIPPGESCPEPLHTYGLPCHCPFKEGTYSLPTSNFTVPDLELPSWLSTGNYRIQSILSSGGKRLGCIKIAASLKGR
intracellular signaling of insulin [2, 6]: inhibited | intracellular signaling of leptin [3, 6]: inhibited | intracellular signaling of NGF [4, 6]: inhibited | enhancing action by insulin on intracellular incorporation of 2-deoxyglucose ([5]; concentration-dependent, 2 and 10 μg/ml): inhibited | Amount of 2-Deoxyglucose ([5]; GM2A Protein 2 μg/ml): 184 | Amount of 2-Deoxyglucose ([5]; GM2A Protein 10 μg/ml): 156

From patent US20110214193A1, “BIOMARKER FOR MICRODOMAIN DISEASE” (SUMITOMO CHEMICAL COMPANY, LIMITED, priority 2008, published 2011)
